Measured values as given in PMC11348030, “mTORC1 phosphorylates and stabilizes LST2 to negatively regulate EGFR” (Proceedings of the National Academy of Sciences of the …, 2024).
Where no end group is shown, it is not given here. The star is where a group is joined. FITC = O=C1OC2(c3ccc(O)cc3Oc3cc(O)ccc32)c2ccc(NC(=S)*)cc21

B1: full-length LST2 F401A (natural protein, UniProt Q9HCC9 1-887, looked up)
chain: MMNRFRKWLYKPKRSDPQLLARFYYADEELNQVAAELDSLDGRKDPQRCTLLVSQFRSCQDNVLNIINQIMDECIPQDRAPRDFCVKFPEEIRHDNLAGQLWFGAECLAAGSIIMNRELESMAMRPLAKELTRSLEDVRGALRDQALRDLNTYTEKMREALRHFDVLFAEFELSYVSAMVPVKSPREYYVQQEVIVLFCETVERALDFGYLTQDMIDDYEPALMFSIPRLAIVCGLVVYADGPLNLDRKVEDMSELFRPFHTLLRKIRDLLQTLTEEELHTLERNLCISQDVEFPIRADVQGPAALAPALSAPLPPEGPLSAKAKDPDAELACSMQYDDQELEQLSRMVHRAGDEMSSLLSPPIACQSPAHRPGAEGSPGGEASPGRPRLRSGSDEEERVAFMDDVEGTAEALARPESPAGPFGWAGSTWADPQEKGQGGPGGAAGISLPASEKEEDLSNNNLEAEGTDGASLAGTSSCSCLDSRLHLDGWEVGADDAETAEMIAHRTGGMKLSATVIFNPKSPTSLDSAVATQEAASEPVAEGMDGGPHKLSTGATNCLLHSCVCCGSCGDSREDVVERLREKCSPGGVIGASYAAGLAKASDRAPERQEEAPPPSEDASNGREPKAPTSDKCLPHTSGSQVDTASGLQGEAGVAGQQEPEARELHAGSPSAHEAPQALSGSSSSTAGSCSSDKMGPEAAPAATHAAPQATREKIRSRFHGSHDLIHRLFVCISGVADQLQTNYASDLRSILKTLFEVMATKPETDDKEKLRKVTQTLRSAALEDCALCQETLSSSELAAKTRDGDFEDPPEWVPDEACGFCTACKAPFTVIRRKHHCRSCGKIFCSRCSSHSAPLPRYGQVKPVRVCTHCYMFHVTPFYSDKAGL
notes: LST2 (ZFYVE28), full length, with F401A in the TOS motif; Tags and host in SI Appendix; also called TOS-deficient LST2-F401A; source: purified
B2: FITC-labeled LST2 TOS peptide including flanking residues (amino acids 395 to 407) (peptide, UniProt Q9HCC9 395-407, looked up)
peptide: {FITC}-DEEERVFFMDDVE
notes: also called LST2 TOS peptide WT; FITC-labeled peptide; source: synthetic peptide

How the values were obtained:
[1] = biological target: T1, regulatory-associated protein of mTOR (RAPTOR) (UniProt Q8N122 1-1335); assay: co-IP; coimmunoprecipitation with purified RAPTOR and purified full-length LST2 (WT or F401A); blot quantified, N = 3; conditions: both partners purified
T1 construct: RAPTOR, regulatory-associated protein of mTOR; purified protein; Construct, host and tags are in SI Appendix, Material and Methods; In the cryo-EM rows RAPTOR stood as a subunit of mTORC1; source: purified

[2] = biological target: T1, regulatory-associated protein of mTOR …; assay: fluorescence polarisation; fluorescence anisotropy; purified RAPTOR with N-terminally FITC-labeled synthetic LST2 TOS peptides; N = 3; conditions: both partners purified

T1 sequence (Q8N122 whole entry): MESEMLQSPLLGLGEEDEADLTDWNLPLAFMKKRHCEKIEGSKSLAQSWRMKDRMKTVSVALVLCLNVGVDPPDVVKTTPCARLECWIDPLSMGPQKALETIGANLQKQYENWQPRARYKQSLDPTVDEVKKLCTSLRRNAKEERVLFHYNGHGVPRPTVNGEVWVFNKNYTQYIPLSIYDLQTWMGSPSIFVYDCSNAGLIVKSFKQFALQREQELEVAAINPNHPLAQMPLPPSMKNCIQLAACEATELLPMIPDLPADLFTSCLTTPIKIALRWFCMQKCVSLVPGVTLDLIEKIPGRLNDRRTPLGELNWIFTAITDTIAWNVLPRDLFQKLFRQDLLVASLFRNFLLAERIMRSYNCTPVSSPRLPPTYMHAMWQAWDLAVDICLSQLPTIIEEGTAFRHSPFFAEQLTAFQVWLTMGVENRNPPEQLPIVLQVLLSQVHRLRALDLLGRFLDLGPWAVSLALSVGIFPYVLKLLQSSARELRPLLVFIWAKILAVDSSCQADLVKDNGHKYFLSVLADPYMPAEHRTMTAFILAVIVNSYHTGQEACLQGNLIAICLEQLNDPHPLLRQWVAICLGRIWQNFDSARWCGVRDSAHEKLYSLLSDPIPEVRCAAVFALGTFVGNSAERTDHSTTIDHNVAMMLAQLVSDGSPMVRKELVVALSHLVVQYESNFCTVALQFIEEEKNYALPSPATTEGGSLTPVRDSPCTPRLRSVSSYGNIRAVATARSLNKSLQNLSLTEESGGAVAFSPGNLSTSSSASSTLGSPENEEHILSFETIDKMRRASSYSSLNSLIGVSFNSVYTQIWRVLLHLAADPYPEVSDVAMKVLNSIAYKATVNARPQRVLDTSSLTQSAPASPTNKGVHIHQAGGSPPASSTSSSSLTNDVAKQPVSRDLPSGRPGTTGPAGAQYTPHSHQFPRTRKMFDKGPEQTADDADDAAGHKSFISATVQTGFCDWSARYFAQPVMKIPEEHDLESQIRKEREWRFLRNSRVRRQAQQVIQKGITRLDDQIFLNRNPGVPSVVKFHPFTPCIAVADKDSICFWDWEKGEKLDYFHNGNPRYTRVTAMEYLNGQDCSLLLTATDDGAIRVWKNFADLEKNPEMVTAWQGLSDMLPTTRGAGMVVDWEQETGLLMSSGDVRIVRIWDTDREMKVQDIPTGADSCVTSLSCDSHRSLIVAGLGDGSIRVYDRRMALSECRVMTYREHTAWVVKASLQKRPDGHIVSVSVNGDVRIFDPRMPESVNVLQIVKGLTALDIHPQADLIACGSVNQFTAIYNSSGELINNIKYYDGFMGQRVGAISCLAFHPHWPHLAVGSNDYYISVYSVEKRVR

| Binder | fold reduction of binding against LST2-WT [1] | Kd [2] |
| --- | --- | --- |
| B1 | 9 fold |  |
| B2 |  | 330 nM |
